Source: patent publication US20240262917

Columns and labels:
[1] = biological target: ALK LF655del cleavage site mutant
[2] = biological target: Full-length human anaplastic lymphoma kinase (ALK) receptor, wild type
Sequence of Full-length human anaplastic lymphoma kinase (ALK) receptor, wild type (chain, as listed by the source): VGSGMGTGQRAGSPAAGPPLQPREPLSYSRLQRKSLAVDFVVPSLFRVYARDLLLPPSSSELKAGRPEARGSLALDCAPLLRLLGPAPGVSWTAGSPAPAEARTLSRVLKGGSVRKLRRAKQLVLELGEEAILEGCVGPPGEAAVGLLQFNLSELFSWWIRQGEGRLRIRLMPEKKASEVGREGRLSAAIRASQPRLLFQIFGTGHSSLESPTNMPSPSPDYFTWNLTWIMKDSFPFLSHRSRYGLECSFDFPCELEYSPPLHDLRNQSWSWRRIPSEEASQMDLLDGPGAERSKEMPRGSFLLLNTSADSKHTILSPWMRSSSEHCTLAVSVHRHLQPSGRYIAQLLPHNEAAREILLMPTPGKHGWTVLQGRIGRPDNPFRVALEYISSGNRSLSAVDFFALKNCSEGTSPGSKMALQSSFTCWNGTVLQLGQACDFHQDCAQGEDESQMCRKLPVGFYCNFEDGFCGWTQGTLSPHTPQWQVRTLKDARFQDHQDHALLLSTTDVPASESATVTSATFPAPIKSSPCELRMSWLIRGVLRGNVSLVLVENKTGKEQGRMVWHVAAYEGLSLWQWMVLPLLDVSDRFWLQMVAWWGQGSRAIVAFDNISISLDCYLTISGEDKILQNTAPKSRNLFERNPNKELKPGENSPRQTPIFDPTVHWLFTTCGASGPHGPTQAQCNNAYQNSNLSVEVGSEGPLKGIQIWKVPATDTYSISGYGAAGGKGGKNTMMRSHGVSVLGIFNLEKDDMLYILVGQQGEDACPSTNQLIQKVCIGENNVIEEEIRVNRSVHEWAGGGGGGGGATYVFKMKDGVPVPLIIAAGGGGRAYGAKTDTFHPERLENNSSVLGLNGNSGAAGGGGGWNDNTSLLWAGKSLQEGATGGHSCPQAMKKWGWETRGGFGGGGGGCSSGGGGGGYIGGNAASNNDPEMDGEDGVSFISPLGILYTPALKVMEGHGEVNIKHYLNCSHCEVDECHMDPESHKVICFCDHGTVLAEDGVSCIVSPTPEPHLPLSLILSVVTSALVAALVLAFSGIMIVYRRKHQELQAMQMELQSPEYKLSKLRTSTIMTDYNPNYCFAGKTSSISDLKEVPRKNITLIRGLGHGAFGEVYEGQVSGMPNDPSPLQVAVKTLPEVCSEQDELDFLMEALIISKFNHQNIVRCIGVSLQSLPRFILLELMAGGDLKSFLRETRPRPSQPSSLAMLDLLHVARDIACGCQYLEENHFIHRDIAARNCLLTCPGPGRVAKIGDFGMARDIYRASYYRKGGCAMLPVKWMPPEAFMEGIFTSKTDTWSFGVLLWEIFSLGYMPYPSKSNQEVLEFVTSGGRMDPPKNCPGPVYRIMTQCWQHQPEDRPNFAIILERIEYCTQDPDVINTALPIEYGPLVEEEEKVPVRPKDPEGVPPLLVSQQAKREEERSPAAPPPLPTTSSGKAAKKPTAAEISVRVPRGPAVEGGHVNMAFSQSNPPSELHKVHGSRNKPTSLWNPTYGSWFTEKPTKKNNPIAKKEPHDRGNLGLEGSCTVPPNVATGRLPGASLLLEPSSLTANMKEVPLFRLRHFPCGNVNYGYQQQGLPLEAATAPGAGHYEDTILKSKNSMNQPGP

Sequence of ALK LF655del cleavage site mutant (chain, as listed by the source mutant): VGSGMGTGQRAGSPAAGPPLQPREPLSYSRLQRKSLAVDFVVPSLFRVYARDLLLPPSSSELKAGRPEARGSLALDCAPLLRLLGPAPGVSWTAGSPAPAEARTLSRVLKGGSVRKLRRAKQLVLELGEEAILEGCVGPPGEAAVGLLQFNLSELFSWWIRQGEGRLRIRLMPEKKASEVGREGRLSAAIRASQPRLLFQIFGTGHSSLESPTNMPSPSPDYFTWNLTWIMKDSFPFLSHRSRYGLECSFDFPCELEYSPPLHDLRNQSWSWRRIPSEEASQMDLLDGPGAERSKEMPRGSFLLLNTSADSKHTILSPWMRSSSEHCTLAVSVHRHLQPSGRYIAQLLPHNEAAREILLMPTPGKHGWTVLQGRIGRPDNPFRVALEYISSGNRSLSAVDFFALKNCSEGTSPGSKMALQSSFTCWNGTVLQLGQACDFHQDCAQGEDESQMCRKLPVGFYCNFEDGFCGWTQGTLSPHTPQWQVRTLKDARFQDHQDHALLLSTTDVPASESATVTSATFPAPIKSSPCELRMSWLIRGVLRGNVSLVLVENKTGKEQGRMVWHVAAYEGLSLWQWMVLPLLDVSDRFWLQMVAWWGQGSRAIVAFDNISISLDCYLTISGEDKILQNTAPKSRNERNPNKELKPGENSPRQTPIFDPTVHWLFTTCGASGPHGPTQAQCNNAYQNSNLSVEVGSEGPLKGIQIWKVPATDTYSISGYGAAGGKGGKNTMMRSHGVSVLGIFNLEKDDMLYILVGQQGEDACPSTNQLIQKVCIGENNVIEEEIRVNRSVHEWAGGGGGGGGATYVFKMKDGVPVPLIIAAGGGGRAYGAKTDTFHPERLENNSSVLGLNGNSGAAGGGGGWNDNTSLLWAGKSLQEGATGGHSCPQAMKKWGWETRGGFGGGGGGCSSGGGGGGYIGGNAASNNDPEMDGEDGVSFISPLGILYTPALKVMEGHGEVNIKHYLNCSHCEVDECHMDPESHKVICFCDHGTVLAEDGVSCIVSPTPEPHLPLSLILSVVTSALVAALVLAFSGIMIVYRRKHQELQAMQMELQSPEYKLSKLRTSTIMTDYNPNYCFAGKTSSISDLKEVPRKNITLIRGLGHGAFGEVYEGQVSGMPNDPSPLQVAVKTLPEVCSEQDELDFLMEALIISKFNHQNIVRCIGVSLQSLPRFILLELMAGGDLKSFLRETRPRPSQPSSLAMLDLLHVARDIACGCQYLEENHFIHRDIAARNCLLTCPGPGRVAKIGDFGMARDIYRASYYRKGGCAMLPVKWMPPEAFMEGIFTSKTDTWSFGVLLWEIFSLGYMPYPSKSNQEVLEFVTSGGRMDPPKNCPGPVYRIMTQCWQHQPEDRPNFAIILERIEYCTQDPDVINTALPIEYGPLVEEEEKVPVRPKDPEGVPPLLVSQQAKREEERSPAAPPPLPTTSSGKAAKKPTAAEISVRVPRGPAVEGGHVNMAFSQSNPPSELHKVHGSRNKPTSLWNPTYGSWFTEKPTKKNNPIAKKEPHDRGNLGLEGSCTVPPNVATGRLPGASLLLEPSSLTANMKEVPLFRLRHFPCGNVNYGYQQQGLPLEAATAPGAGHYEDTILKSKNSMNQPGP

B1: Full-length recombinant human MMP-9 (protein)
chain: APRQRQSTLVLFPGDLRTNLTDRQLAEEYLYRYGYTRVAEMRGESKSLGPALLLLQKQLSLPETGELDSATLKAMRTPRCGVPDLGRFQTFEGDLKWHHHNITYWIQNYSEDLPRAVIDDAFARAFALWSAVTPLTFTRVYSRDADIVIQFGVAEHGDGYPFDGKDGLLAHAFPPGPGIQGDAHFDDDELWSLGKGVVVPTRFGNADGAACHFPFIFEGRSYSACTTDGRSDGLPWCSTTANYDTDDRFGFCPSERLYTQDGNADGKPCQFPFIFQGQSYSACTTDGRSDGYRWCATTANYDRDKLFGFCPTRADSTVMGGNSAGELCVFPFTFLGKEYSTCTSEGRGDGRLWCATTSNFDSDKKWGFCPDQGYSLFLVAAHEFGHALGLDHSSVPEALMYPMYRFTEGPPLHKDDVNGIRHLYGPRPEPEPRPPTTTTPQPTAPPTVCPTGPPTVHPSERPTAGPTGPPSAGPTGPPTAGPSTATTVPLSPVDDACNVNIFDAIAEIGNQLYLFKDGKYWRFSEGRGSRPQGPFLIADKWPALPRKLDSVFEERLSKKLFFFSGRQVWVYTGASVLGPRRLDKLGLGADVAQVTGALRSGRGKMLLFSGRRLWRFDVKAQMVDPRSASEVDRMFPGVPLDTHDVFQYREKAYFCQDRFYWRVSSRSELNQVDQVGYVTYDILQCPED
in vitro cleavage assay (western blot of ALK) [1]: but not the ALK LF655del protein | in vitro cleavage assay (western blot of ALK) [2]: Treatment of purified WT ALK, but not the ALK LF655del protein, with recombinant human MMP-9 resulted in ALK cleavage
